The values that follow come from patent publication US20260184814A1, “BROADLY NE[…] INFLUENZA NEURAMINIDASE” (priority 2022, published 2026).

Like-named read-outs stand apart in the source and are kept apart here.

Experiment [1] deals with human FcγRIIIa (F158 allele) (human) (UniProt P08637).
Experiment [2] concerns the target human FcγRIIIa (V158 allele) (human) (UniProt P08637).
The target of experiment [3] is human FcγRIIa (R131 allele) (human) (UniProt P12318). Kind of experiment: MSD [cont'd].
Sequence of human FcγRIIa (R131 allele) (human) (P12318 34-218 H167R limits assumed): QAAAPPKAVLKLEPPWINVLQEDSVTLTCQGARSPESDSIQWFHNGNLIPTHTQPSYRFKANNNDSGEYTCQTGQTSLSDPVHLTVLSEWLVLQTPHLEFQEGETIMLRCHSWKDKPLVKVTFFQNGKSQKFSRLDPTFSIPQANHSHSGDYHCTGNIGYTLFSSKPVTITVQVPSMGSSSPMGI
Experiment [4] concerns the target human FcγRIIIa (F158 allele) (human) (UniProt P08637). Description: MSD [cont'd].
In experiment [5] the target is human FcγRIIb (human) (UniProt P31994). Description: MSD [cont'd].
Sequence of human FcγRIIb (human) (P31994 43-217 limits assumed): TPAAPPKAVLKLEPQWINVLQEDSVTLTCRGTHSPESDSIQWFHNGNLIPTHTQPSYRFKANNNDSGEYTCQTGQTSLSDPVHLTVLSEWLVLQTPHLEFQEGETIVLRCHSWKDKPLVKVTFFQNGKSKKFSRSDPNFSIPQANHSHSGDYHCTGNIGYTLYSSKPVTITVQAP
The target in experiment [6] is human FcγRIIa (H131 allele) (human) (UniProt P12318). Description: MSD [cont'd].
Sequence of human FcγRIIa (H131 allele) (human) (P12318 34-218 limits assumed): as the sequence (P12318 34-218 H167R limits assumed) above, with R134H counted along it
The target in experiment [7] is human FcγRIIIa (V158 allele) (human) (UniProt P08637). Kind of experiment: MSD [cont'd].
Sequence of human FcγRIIIa (V158 allele) (human) (P08637 17-208 F176V limits assumed): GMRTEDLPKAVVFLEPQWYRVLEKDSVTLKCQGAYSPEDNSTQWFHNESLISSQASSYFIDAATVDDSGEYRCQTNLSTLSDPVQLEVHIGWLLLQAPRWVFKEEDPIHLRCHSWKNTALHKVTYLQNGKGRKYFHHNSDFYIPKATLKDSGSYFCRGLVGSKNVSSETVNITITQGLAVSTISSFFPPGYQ
The target in experiment [8] is human FcRn (human) (UniProt P55899). Kind of experiment: MSD [cont'd].
Sequence of human FcRn (human) (P55899 24-297 limits assumed, chain 1 of 2): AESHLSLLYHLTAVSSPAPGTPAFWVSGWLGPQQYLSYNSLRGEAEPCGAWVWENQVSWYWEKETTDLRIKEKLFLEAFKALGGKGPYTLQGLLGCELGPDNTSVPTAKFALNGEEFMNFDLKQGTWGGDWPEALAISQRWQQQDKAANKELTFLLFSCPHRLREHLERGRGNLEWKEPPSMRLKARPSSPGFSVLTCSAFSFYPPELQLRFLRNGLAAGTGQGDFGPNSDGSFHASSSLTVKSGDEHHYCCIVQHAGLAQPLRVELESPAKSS
Sequence of human FcRn (human) (chain, as listed by the source limits assumed, chain 2 of 2): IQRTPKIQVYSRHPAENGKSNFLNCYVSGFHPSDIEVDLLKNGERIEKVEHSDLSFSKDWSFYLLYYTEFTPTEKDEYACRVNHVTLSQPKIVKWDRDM
Experiment [9] has as its target human FcγRIIIb (human) (UniProt O75015). Kind of experiment: MSD [cont'd].
The target in experiment [10] is human FcγRIIa (R131 allele) (human) (UniProt P12318). Kind of experiment: MSD.
Experiment [11] has as its target human FcγRIIIa (F158 allele) (human) (UniProt P08637). Description: MSD.
In experiment [12] the target is human FcγRIIb (human) (UniProt P31994). Description: MSD.
For experiment [13], the target named is human FcγRIIa (H131 allele) (human) (UniProt P12318). Kind of experiment: MSD.
Experiment [14] concerns the target human FcγRIIIa (V158 allele) (human) (UniProt P08637). Description: MSD.
Experiment [15] deals with human FcγRIIIb (human) (UniProt O75015). Description: MSD.
Sequence of human FcγRIIIb (human) (O75015 17-200 limits assumed): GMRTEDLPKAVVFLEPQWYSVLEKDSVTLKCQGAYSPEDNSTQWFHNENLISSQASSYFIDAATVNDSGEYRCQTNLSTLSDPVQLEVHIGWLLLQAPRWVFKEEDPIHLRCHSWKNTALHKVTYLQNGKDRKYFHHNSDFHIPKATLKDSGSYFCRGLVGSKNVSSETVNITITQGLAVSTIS
Experiment [16] concerns the target human FcγRIIa (R131 allele) (human) (UniProt P12318). Kind of experiment: MSD electrochemiluminescence binding assay; column IIA_R.
In experiment [17] the target is human FcγRIIIa (F158 allele) (human) (UniProt P08637). The source holds these as a separate data set.
Experiment [18] has as its target human FcγRIIb (human) (UniProt P31994).
The target of experiment [19] is human FcγRIIa (H131 allele) (human) (UniProt P12318).
For experiment [20], the target named is human FcγRIIIa (V158 allele) (human) (UniProt P08637). The source holds these as a separate data set.
The target in experiment [21] is human FcγRIIa (H131 allele) (human) (UniProt P12318). Description: MSD electrochemiluminescence binding assay; column IIA_H.
Experiment [22] deals with human C1q (human) (UniProt P02745). Description: MSD [cont'd].
Sequence of human C1q (human) (P02745 23-245 limits assumed, chain 1 of 3): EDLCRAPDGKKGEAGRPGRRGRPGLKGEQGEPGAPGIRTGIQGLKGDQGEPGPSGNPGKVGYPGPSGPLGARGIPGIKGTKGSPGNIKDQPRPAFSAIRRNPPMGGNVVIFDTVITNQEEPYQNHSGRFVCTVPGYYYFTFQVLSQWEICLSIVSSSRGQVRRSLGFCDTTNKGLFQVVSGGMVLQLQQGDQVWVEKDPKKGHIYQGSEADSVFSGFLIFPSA
Sequence of human C1q (human) (P02746 28-253 limits assumed, chain 2 of 3, further chain): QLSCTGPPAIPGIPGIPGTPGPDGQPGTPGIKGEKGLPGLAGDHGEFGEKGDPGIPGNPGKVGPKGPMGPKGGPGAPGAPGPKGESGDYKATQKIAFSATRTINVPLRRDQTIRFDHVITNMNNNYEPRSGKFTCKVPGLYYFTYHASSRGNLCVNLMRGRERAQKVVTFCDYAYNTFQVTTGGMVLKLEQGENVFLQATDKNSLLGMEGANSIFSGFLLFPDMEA
Sequence of human C1q (human) (P02747 29-245 limits assumed, chain 3 of 3, further chain): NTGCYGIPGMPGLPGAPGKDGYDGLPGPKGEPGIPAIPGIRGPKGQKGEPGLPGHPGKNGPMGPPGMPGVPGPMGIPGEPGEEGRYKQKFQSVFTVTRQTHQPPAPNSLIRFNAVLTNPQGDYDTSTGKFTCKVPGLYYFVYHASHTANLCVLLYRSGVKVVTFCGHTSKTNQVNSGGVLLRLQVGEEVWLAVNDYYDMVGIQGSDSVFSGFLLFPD
Experiment [23] deals with human FcγRIIIa (V158 allele) (human) (UniProt P08637). Kind of experiment: MSD electrochemiluminescence binding assay; column IIIA_V.
Experiment [24] has as its target human FcRn (human) (UniProt P55899). Description: MSD electrochemiluminescence binding assay; column FcRn.
The target in experiment [25] is human FcγRIIIa (F158 allele) (human) (UniProt P08637). Kind of experiment: MSD electrochemiluminescence binding assay; column IIIA_F.
Experiment [26] deals with human FcγRIIb (human) (UniProt P31994). Description: MSD electrochemiluminescence binding assay; column IIB.
Experiment [27] has as its target human FcγRIIIb (human) (UniProt O75015). Description: MSD electrochemiluminescence binding assay; column IIIB.
Experiment [28] concerns the target human FcRn (human) (UniProt P55899). Description: MSD, pH 6 [cont'd].
The target in experiment [29] is human C1q (human) (UniProt P02745). Description: MSD [cont'd]. This is another data set of the same source.

Sequence of human FcγRIIIa (F158 allele) (human) (P08637 17-208 limits assumed): as the sequence (P08637 17-208 F176V limits assumed) above, with V160F counted along it

Consider “G236A_A330L_I332E_M428L_N434S-afuc (antibody)”, for which the figures for the FcγR reporter signaling, fold to wt-fucose [cont'd] in experiment [1] and in experiment [2] were 16.4 fold and 6.2 fold, respectively. The fold to wt-fucose in [3] was 1.2 fold; in [4] it was 275 fold; in the experiment with human FcγRIIb (human) [5] it was 0.41 fold; in experiment [6] it was 2.56 fold; in experiment [7], 34.5 fold; in the experiment with human FcRn (human) [8], 7.37 fold. In addition, the fold to wt-fucose in the experiment with human FcγRIIIb (human) [9] is 11.8 fold. In addition, the fold-change (reference not given) in [10] turned out to be 1.1 fold; in [11], 256 fold; with human FcγRIIb (human) [12] it was 0.4 fold; in experiment [13] it was 2.3 fold; in [14] it was 30.2 fold; with human FcγRIIIb (human) [15] it was 12.3 fold.

On to G236S_R292P_Y300L-afuc (antibody), for which the FcγR reporter signaling, fold to wt-fucose [cont'd] in experiment [1] came out at 6.54 fold; in experiment [2], 2.87 fold. The fold to wt-fucose came out at 1.5 fold in experiment [3]; 5.47 fold in experiment [4]; 0.72 fold in the experiment with human FcγRIIb (human) [5]; 8.13 fold in [6]; 3.17 fold in [7]; 0.8 fold with human FcRn (human) [8]. For the same substance, in the experiment with human FcγRIIIb (human) [9], the fold to wt-fucose was found to be 1.04 fold.

On to “IgG1 antibody with Fc variant G236A_P230A_Q295E”, for which the fold-change in binding vs wild-type IgG1 in experiment [16] was determined as 4.57; in experiment [21], 7.59; in [23], 0.31; in the experiment with human FcRn (human) [24], 0.93; in experiment [25], 0.48; with human FcγRIIb (human) [26], 0.48. In the experiment with human FcγRIIIb (human) [27], the fold-change in binding vs wild-type IgG1 was 0.72. The FcγR reporter signaling, fold-change vs wt [cont'd] in experiment [17] is 0.02 fold; with human FcγRIIb (human) [18], 0.56 fold; in experiment [19], 2.29 fold; in experiment [20], 0.06 fold. Also, the fold-change vs wt came to 0.3 fold with human C1q (human) [22]; 0.93 fold with human FcRn (human) [8]; 4.57 fold in experiment [10]; 0.48 fold in experiment [11]; 0.54 fold in the experiment with human FcγRIIb (human) [12]; 7.67 fold in [13]. In addition, the figures for the fold-change vs wt (in experiment [14]; with human FcγRIIIb (human) [15]) were 0.31 fold and 0.72 fold, respectively.

On to G236A_P230A_Q295E-afuc (antibody), for which the FcγR reporter signaling, fold to wt-fucose [cont'd] came out at 10.9 fold in [1] and 5.54 fold in experiment [2]. Also, the fold to wt-fucose in experiment [3] was 6.04 fold; in experiment [4] it was 26.7 fold; with human FcγRIIb (human) [5], 0.67 fold; in experiment [6], 8.94 fold; in [7], 10.8 fold; with human FcRn (human) [8] it was 1.02 fold. Also, the fold to wt-fucose in the experiment with human FcγRIIIb (human) [9] was 1.8 fold.

For the substance “IgG1 antibody with Fc variant G236A_K334A_Q295E”, the fold-change in binding vs wild-type IgG1 came out at 2.88 in [16]; 5.01 in experiment [21]; 0.27 in [23]; 1.02 in the experiment with human FcRn (human) [24]; 0.74 in experiment [25]; 0.4 with human FcγRIIb (human) [26]. Further, in the experiment with human FcγRIIIb (human) [27], the fold-change in binding vs wild-type IgG1 turned out to be 0.72. The FcγR reporter signaling, fold-change vs wt [cont'd] is 0.23 fold in experiment [17], 0.8 fold with human FcγRIIb (human) [18], 2.13 fold in experiment [19] and 0.36 fold in [20]. Besides, the fold-change vs wt was 0.9 fold in the experiment with human C1q (human) [22]; 1.02 fold with human FcRn (human) [8]; 2.92 fold in [10]; 0.74 fold in experiment [11]; 0.67 fold in the experiment with human FcγRIIb (human) [12]; 4.96 fold in [13]. Besides, the figures for the fold-change vs wt (in experiment [14]; with human FcγRIIIb (human) [15]) were 0.27 fold and 0.72 fold, respectively.

G236A_R292P_I377N-afuc (antibody): the FcγR reporter signaling, fold to wt-fucose [cont'd] was found to be 9.68 fold in [1] and 3.94 fold in [2]. In addition, the fold to wt-fucose in [3] was 1.35 fold; in experiment [4], 14.8 fold; with human FcγRIIb (human) [5], 0.6 fold; in [6], 5.54 fold; in [7], 7.14 fold; in the experiment with human FcRn (human) [8] it was 0.8 fold. Further, the fold to wt-fucose with human FcγRIIIb (human) [9] was determined as 1.2 fold. The fold-change (reference not given) in [10] is 1.4 fold; in experiment [11] it was 14.8 fold; with human FcγRIIb (human) [12], 0.6 fold; in experiment [13] it was 5.5 fold; in experiment [14], 7.1 fold; with human FcγRIIIb (human) [15], 1.2 fold.

In the case of G236S_G420V_G446E_L309T-afuc (antibody), the FcγR reporter signaling, fold to wt-fucose [cont'd] in [1] was determined as 4.41 fold; in [2], 4 fold. The fold to wt-fucose in experiment [3] was 1.7 fold; in experiment [4], 3.35 fold; in the experiment with human FcγRIIb (human) [5] it was 0.44 fold; in experiment [6], 3.62 fold; in [7], 1.99 fold; with human FcRn (human) [8] it was 0.77 fold. Also, the fold to wt-fucose with human FcγRIIIb (human) [9] was 0.86 fold.

Regarding G236A_R292P-afuc (antibody), the FcγR reporter signaling, fold to wt-fucose [cont'd] came out at 3.34 fold in experiment [1] and 2.18 fold in experiment [2]. For the same substance, the fold to wt-fucose in [3] stood at 1.04 fold; in experiment [4], 5.83 fold; with human FcγRIIb (human) [5], 0.51 fold; in experiment [6], 3.05 fold; in [7], 3.37 fold; with human FcRn (human) [8] it was 0.73 fold. Besides, in the experiment with human FcγRIIIb (human) [9], the fold to wt-fucose is 1.15 fold.

Turning to G236A_K334A_Q295E-afuc (antibody), the FcγR reporter signaling, fold to wt-fucose [cont'd] in experiment [1] stood at 12.7 fold; in [2], 5.54 fold. For the same substance, the fold to wt-fucose in experiment [3] was 3.75 fold; in experiment [4], 27.5 fold; with human FcγRIIb (human) [5] it was 0.55 fold; in experiment [6], 5.32 fold; in [7], 7.93 fold; with human FcRn (human) [8] it was 1.11 fold. The fold to wt-fucose in the experiment with human FcγRIIIb (human) [9] was determined as 1.62 fold.

In the case of G236A_A330L_I332E-afuc (antibody), the FcγR reporter signaling, fold to wt-fucose [cont'd] turned out to be 14.8 fold in experiment [1] and 5.27 fold in [2]. Moreover, the fold to wt-fucose in experiment [3] worked out at 1.65 fold; in experiment [4], 259 fold; with human FcγRIIb (human) [5], 0.67 fold; in experiment [6], 3.45 fold; in experiment [7], 32 fold; with human FcRn (human) [8], 1.09 fold. Besides, in the experiment with human FcγRIIIb (human) [9], the fold to wt-fucose stood at 14.1 fold. Further, the fold-change (reference not given) in experiment [10] came out at 1.6 fold; in [11], 242 fold; in the experiment with human FcγRIIb (human) [12], 0.6 fold; in experiment [13], 3.1 fold; in [14], 28 fold; in the experiment with human FcγRIIIb (human) [15] it was 14.8 fold.

On to “IgG1 antibody with Fc variant G236S_R292P_Y300L”, for which the FcγR reporter signaling, fold-change vs wt [cont'd] was 1.52 fold in experiment [17], 0.93 fold in the experiment with human FcγRIIb (human) [18], 2.24 fold in [19] and 1.32 fold in [20]. Also, the fold-change to WT Fc with human C1q (human) [22] came to 1.98 fold; in [4], 1.06 fold; with human FcRn (human) [28] it was 0.87 fold; in experiment [10], 1.34 fold; in the experiment with human FcγRIIb (human) [12], 0.817 fold; in [13], 10.9 fold. The fold-change to WT Fc in experiment [14] turned out to be 0.753 fold. The fold-change vs wt in the experiment with human C1q (human) [22] turned out to be 1.98 fold; with human FcRn (human) [8] it was 0.87 fold; in experiment [10], 1.34 fold; in experiment [11] it was 1.06 fold; with human FcγRIIb (human) [12] it was 0.82 fold; in [13], 10.8 fold. The fold-change vs wt worked out at 0.75 fold in experiment [14], 1.04 fold with human FcγRIIIb (human) [15] and 1.96 fold in the experiment with human C1q (human) [29].
